Assay results from PMC12881670, “Investigation into ligand selectivity and bias at the formyl peptide receptor family” (The Journal of Pharmacology and Experimental Therapeutics, 2025).
Where no end group is shown, it is not given here. [ ]: non-standard residue; d: D form.

Columns and labels:
[1] = system: FPR1; settings: at 100 nM; cited from earlier work
[2] = biological target: T1, FLAG-tagged human FPR1 (Hs_FPR1) (human, UniProt P21462 1-350); test: cell-based or functional assay
T1 sequence (looked up): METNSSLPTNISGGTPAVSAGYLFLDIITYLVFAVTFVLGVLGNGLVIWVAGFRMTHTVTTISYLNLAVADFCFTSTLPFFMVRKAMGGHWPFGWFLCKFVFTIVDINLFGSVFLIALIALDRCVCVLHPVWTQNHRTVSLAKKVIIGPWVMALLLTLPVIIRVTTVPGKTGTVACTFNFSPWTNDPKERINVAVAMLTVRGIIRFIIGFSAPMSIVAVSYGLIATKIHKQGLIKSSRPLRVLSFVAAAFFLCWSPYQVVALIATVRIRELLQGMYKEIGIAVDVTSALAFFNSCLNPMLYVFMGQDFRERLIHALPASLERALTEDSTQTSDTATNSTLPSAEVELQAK

[3] = biological target: T2, FLAG-tagged mouse Fpr2 (Mm_Fpr2) (mouse, UniProt O88536 1-351); test: cell-based or functional assay
T2 sequence (looked up): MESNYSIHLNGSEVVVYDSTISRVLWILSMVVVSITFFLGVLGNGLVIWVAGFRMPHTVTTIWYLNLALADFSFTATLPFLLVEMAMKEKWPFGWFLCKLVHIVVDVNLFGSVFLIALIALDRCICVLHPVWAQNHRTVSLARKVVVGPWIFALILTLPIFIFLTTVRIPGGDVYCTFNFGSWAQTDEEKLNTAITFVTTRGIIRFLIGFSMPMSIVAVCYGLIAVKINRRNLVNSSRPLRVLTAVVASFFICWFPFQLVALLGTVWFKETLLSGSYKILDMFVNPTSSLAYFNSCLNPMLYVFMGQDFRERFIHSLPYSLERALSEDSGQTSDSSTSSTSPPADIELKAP

[4] = biological target: T3, FLAG-tagged human FPR2 (Hs_FPR2) (human, UniProt P25090 1-351); test: cell-based or functional assay
T3 sequence (looked up): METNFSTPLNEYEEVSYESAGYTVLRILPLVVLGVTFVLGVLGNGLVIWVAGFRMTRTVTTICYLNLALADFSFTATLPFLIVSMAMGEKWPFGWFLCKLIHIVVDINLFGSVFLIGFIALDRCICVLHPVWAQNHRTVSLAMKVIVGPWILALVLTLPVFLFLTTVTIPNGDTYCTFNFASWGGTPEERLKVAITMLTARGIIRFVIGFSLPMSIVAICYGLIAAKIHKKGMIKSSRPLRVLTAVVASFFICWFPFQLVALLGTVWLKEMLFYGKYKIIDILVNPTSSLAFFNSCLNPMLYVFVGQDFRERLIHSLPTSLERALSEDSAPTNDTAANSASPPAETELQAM

[5] = biological target: T4, FLAG-tagged mouse Fpr1 (Mm_Fpr1) (mouse, UniProt P33766 1-364); test: cell-based or functional assay
T4 sequence (looked up): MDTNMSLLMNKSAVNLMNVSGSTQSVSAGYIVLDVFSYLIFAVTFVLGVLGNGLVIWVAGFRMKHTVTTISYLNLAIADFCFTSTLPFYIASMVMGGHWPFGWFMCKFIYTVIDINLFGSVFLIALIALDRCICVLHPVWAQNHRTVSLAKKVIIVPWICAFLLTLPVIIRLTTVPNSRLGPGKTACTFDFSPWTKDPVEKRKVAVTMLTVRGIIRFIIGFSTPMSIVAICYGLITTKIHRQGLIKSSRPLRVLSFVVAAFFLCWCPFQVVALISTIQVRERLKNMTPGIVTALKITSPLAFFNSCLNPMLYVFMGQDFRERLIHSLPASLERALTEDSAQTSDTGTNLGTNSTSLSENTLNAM

[6] = biological target: T5, FLAG-Hs_FPR2 C-terminally fused to Renilla Luciferase 8 (human, UniProt P25090 1-351); test: cell-based or functional assay
T5 sequence (looked up): T3 sequence (looked up)

[7] = biological target: T6, FLAG-Hs_FPR1 C-terminally fused to Renilla Luciferase 8 (human, UniProt P21462 1-350); test: cell-based or functional assay
T6 sequence (looked up): T1 sequence (looked up)

[8] = biological target: T7, FLAG-Mm_Fpr1 C-terminally fused to Renilla Luciferase 8 (mouse, UniProt P33766 1-364); test: cell-based or functional assay
T7 sequence (looked up): T4 sequence (looked up)

[9] = biological target: T8, FLAG-Mm_Fpr2 C-terminally fused to Renilla Luciferase 8 (mouse, UniProt O88536 1-351); test: cell-based or functional assay
T8 sequence (looked up): T2 sequence (looked up)

[10] = biological target: T4, FLAG-tagged mouse Fpr1 (Mm_Fpr1); test: cell-based or functional assay; remark: listed apart in the source
[11] = biological target: T1, FLAG-tagged human FPR1 (Hs_FPR1); test: flow cytometry on cells; competition binding: HEK293 cells stably expressing the receptor, lifted in PBS, on ice 90 min with 10 nM K(5/6-FAM)-WKYMVm and increasing unlabeled ligand; mean fluorescence of 5000 cells as % of that without competitor; One site-Fit logIC50
[12] = biological target: T2, FLAG-tagged mouse Fpr2 (Mm_Fpr2); test: as above
[13] = biological target: T3, FLAG-tagged human FPR2 (Hs_FPR2); test: as above

Cc1cccc(-c2oc(C)nc2C(=O)Nc2cnn(Cc3nc(C(C)(F)F)co3)n2)c1 [ACT-389949]
arrestin recruitment to FPR1, Pathhunter [1]: neither WKYMVM nor ACT-389949 resulted in recruitment

B1: WKYMVm (peptide)
peptide: WKYMV[dM]
notes: the last residue is the D form; the bought peptide is probably also an amide (surmise); source: bought: Tocris
ERK1/2 phosphorylation (Western blot): Emax (% of 1 μM WKYMVm) [2]: 104% | ERK1/2 phosphorylation (Western blot): Log EC50 (M) [2]: -9.1 log M | ERK1/2 phosphorylation (Western blot): Emax (% of 1 μM WKYMVm) [3]: 118% | ERK1/2 phosphorylation (Western blot): Log EC50 (M) [3]: -9.06 log M | ERK1/2 phosphorylation (Western blot): Emax (% of 1 μM WKYMVm) [4]: 93.8% | ERK1/2 phosphorylation (Western blot): Emax (% of 1 μM WKYMVm) [5]: 102% | ERK1/2 phosphorylation (Western blot): Log EC50 (M) [5]: -8.43 log M | BRET of receptor-RLuc8 with Arrestin 3-YFP: Emax (% of 1 μM WKYMVm) [6]: 102% | BRET of receptor-RLuc8 with Arrestin 3-YFP: Log EC50 (M) [6]: -8.13 log M | BRET of receptor-RLuc8 with Arrestin 3-YFP: Emax (% of 1 μM WKYMVm) [7]: 105% | BRET of receptor-RLuc8 with Arrestin 3-YFP: Log EC50 (M) [7]: -7.3 log M | BRET of receptor-RLuc8 with Arrestin 3-YFP: Emax (% of 1 μM WKYMVm) [8]: 112% | BRET of receptor-RLuc8 with Arrestin 3-YFP: Log EC50 (M) [8]: -6.8 log M | BRET of receptor-RLuc8 with Arrestin 3-YFP: Emax (% of 1 μM WKYMVm) [9]: 101% | BRET of receptor-RLuc8 with Arrestin 3-YFP: Log EC50 (M) [9]: -7.46 log M | receptor internalization (flow cytometry): Emax (% of 1 μM WKYMVm) [10]: 108% | receptor internalization (flow cytometry): Log EC50 (M) [10]: -8.01 log M | Log IC50 [11]: -7.42 log M | Max Comp (%) [11]: 96.8% | Log IC50 [12]: -7.18 log M | Max Comp (%) [12]: 97.5% | Log IC50 [13]: -7.7 log M | Max Comp (%) [13]: 100%
